Target: GST-obscurin-PH (human) (UniProt Q5VST9)
Test: SPR; Biacore 3000; GST-obscurin-PH immobilised on a CM5 chip, HIS-PI3K-p85/SH3 as analyte at 8-250 nM, 20 ul/min, 180 s association, 180 s dissociation; 1:1 Langmuir model

UniProt Q5VST9, sequence (Q5VST9 5895-6004): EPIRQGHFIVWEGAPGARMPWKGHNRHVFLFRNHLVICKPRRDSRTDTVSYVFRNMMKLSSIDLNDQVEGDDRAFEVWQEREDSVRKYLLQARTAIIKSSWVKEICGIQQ

Kd: 50 nM
Substance: HIS-PI3K/p85-SH3 (from UniProt O00459 4-80) (domain or fragment)

From publication PMC5216731
